Results as given in the supplement of paper PMC10567573.

B1: CHMP4C (parent)
chain: TNIRLPNVPSSSLPAQPNRKPGMS
B2: SCNN1D (parent)
chain: RRPSPVLRHLELLDEFARENIDSL

Variants of: B1
Test: protein stability index of a GFP-peptide fusion (GPS, HEK-293T) (PSI 1-6); higher = more stable
Settings: c terminus: a fixed tail appended
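Note: lentivirally expressed fusions sorted by FACS into six bins by GFP to DsRed ratio, PSI derived from sequencing read proportions per bin multiplied by bin number.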

| Variant | protein stability index |
| --- | --- |
| M23D | 5.58 |
| M23E | 5.61 |
| M23W | 3.96 |
| M23H | 4.92 |
| M23F | 4.42 |
| M23Q | 5.23 |
| M23N | 5.13 |
| M23I | 4.37 |
| M23S | 5.17 |
| M23P | 4.28 |
| M23L | 4.88 |
| M23T | 5.17 |
| M23R | 4.04 |
| M23G | 5.2 |
| M23V | 4.82 |
| M23Y | 4.7 |
| M23K | 4.37 |
| S24W | 3.8 |

| Variant | protein stability index |
| --- | --- |
| S24Y | 4.34 |
| S24N | 4.57 |
| S24R | 4.67 |
| S24E | 4.83 |
| S24L | 4.15 |
| S24C | 4.2 |
| S24M | 3.99 |
| S24V | 4.86 |
| S24T | 4.62 |
| S24G | 4.14 |
| S24P | 4.81 |
| S24A | 4.48 |
| S24Q | 4.69 |
| S24I | 4.27 |
| S24H | 4.5 |
| S24D | 3.96 |
| S24K | 4.94 |
| S24F | 4.21 |

Variants of: B2
Test: as above
Settings: c terminus: a fixed tail appended

| Variant | protein stability index |
| --- | --- |
| S4Q | 3.89 |
| S4R | 2.87 |
| S4Y | 2.5 |
| S4E | 3.61 |
| S4N | 2.34 |
| S4W | 2.35 |
| S4D | 3.68 |
| S4C | 2.99 |
| S4L | 2.66 |
| S4M | 2.88 |
| S4H | 2.14 |
| S4T | 3.15 |
| S4I | 2.67 |
| S4P | 3.17 |
| S4F | 2.47 |
| S4A | 2.63 |
| S4G | 2.65 |
| S4V | 2.82 |
| S4K | 3.14 |
| P5S | 2.85 |
| P5G | 3.53 |
| P5F | 2.19 |
| P5I | 2.27 |
| P5E | 3.77 |
| P5A | 2.4 |

| Variant | protein stability index |
| --- | --- |
| P5T | 3.05 |
| P5K | 3.59 |
| P5L | 2.06 |
| P5Q | 4.62 |
| P5Y | 2.65 |
| P5C | 2.17 |
| P5R | 3.63 |
| P5H | 2.97 |
| P5V | 2.43 |
| P5W | 1.93 |
| P5D | 3.08 |
| P5N | 3.22 |
| P5M | 2.5 |
| L7H | 3.4 |
| L7C | 3.53 |
| L7M | 2.9 |
| L7E | 3.53 |
| L7W | 2.18 |
| L7K | 3.82 |
| L7I | 3.1 |
| L7R | 3.64 |
| L7V | 3.1 |
| L7P | 4.08 |
| L7Q | 3.4 |
| L7T | 3.48 |

| Variant | protein stability index |
| --- | --- |
| L7N | 3.6 |
| L7A | 3.04 |
| L7G | 4.17 |
| L7D | 4.49 |
| L7F | 3.29 |
| L7S | 3.38 |
| L7Y | 3.24 |
| D14H | 2.5 |
| D14V | 1.37 |
| D14K | 1.8 |
| D14A | 1.67 |
| D14E | 2.56 |
| D14G | 2.83 |
| D14W | 1.44 |
| D14C | 1.59 |
| D14T | 2.21 |
| D14S | 2.16 |
| D14Q | 2.94 |
| D14L | 2.86 |
| D14F | 1.42 |
| D14N | 2.74 |
| D14R | 2.27 |
| D14I | 1.78 |
| D14Y | 2 |
| D14M | 2.6 |

| Variant | protein stability index |
| --- | --- |
| D14P | 2.92 |
| R2I | 2.6 |
| R2Y | 1.63 |
| R2M | 2.5 |
| R2G | 3.52 |
| R2W | 1.78 |
| R2V | 2.93 |
| R2A | 3.98 |
| R2D | 3.41 |
| R2T | 3.55 |
| R2P | 4.61 |
| R2Q | 3.21 |
| R2S | 4.32 |
| R2N | 3.25 |
| R2K | 2.85 |
| R2L | 1.94 |
| R2H | 2.68 |
| R2E | 3.22 |
| R2F | 2.22 |
| R2C | 3.38 |
| R1F | 1.99 |
| R1H | 2.43 |
| R1Y | 1.72 |
| R1M | 2.19 |
| R1C | 2 |

| Variant | protein stability index |
| --- | --- |
| R1K | 2.92 |
| R1W | 2.18 |
| R1E | 3.36 |
| R1T | 2.38 |
| R1G | 2.46 |
| R1A | 2.1 |
| R1L | 2.21 |
| R1P | 2.58 |
| R1D | 2.86 |
| R1Q | 2.69 |
| R1V | 2.36 |
| R1I | 2.1 |
| R1N | 2.5 |
| R1S | 2.63 |
| P3C | 2.73 |
| P3N | 3.06 |
| P3E | 2.38 |
| P3V | 1.44 |
| P3F | 1.88 |
| P3I | 1.96 |
| P3G | 2.75 |
| P3S | 2.72 |
| P3T | 2.83 |
| P3R | 2.85 |
| P3W | 1.76 |

| Variant | protein stability index |
| --- | --- |
| P3Y | 2.31 |
| P3L | 2.42 |
| P3K | 3.06 |
| P3D | 2.74 |
| P3H | 1.96 |
| P3Q | 1.92 |
| P3M | 2.26 |
| P3A | 2.35 |
| L10D | 4.42 |
| L10R | 4.46 |
| L10F | 3.9 |
| L10G | 3.95 |
| L10N | 4.23 |
| L10E | 4.49 |
| L10M | 2.34 |
| L10P | 3.56 |
| L10Y | 3 |
| L10A | 3.84 |
| L10K | 4.33 |
| L10H | 3.98 |
| L10C | 3.24 |
| L10W | 3.23 |
| L10I | 2.1 |
| L10Q | 3.84 |
| L10V | 3.41 |

| Variant | protein stability index |
| --- | --- |
| L10T | 3.59 |
| L10S | 4.16 |
| F16E | 3.63 |
| F16M | 2.25 |
| F16C | 3.61 |
| F16D | 4.61 |
| F16P | 3.72 |
| F16G | 4.12 |
| F16K | 3.91 |
| F16L | 3.36 |
| F16H | 3.77 |
| F16I | 2.84 |
| F16R | 4.28 |
| F16A | 2.61 |
| F16N | 3.88 |
| F16Q | 3.14 |
| H9D | 3.99 |
| H9C | 2.48 |
| H9S | 3.68 |
| H9L | 2.17 |
| H9Y | 1.83 |
| H9T | 3.83 |
| H9I | 2.24 |
| H9N | 4.09 |
| H9M | 1.89 |

| Variant | protein stability index |
| --- | --- |
| H9K | 3.28 |
| H9Q | 3.79 |
| H9V | 2.4 |
| H9A | 2.65 |
| H9W | 1.69 |
| H9G | 3.76 |
| H9E | 3.99 |
| H9P | 3.95 |
| H9F | 1.74 |
| H9R | 3.92 |
| E15W | 2.05 |
| E15R | 2.72 |
| E15D | 3.21 |
| E15F | 2.03 |
| E15H | 2.92 |
| E15N | 3.41 |
| E15Y | 1.83 |
| E15A | 2.97 |
| E15T | 2.92 |
| E15V | 2.29 |
| E15C | 2.94 |
| E15I | 2.72 |
| E15P | 3.02 |
| E15G | 3.34 |
| E15M | 2.18 |

| Variant | protein stability index |
| --- | --- |
| E15L | 1.76 |
| E15K | 2.82 |
| E15Q | 2.95 |
| E15S | 3.27 |
| L13W | 3.19 |
| L13R | 3.6 |
| L13K | 3.9 |
| L13Y | 3.19 |
| L13T | 4.13 |
| L13V | 3.6 |
| L13N | 4.16 |
| L13I | 3.73 |
| L13P | 4.21 |
| L13A | 3.98 |
| L13F | 3.14 |
| L13M | 3.59 |
| L13Q | 3.78 |
| L13D | 4.57 |
| L13G | 4.23 |
| L13S | 4.26 |
| L13H | 4.31 |
| L13E | 4.48 |
| L13C | 3.57 |
| E11V | 2.56 |
| E11H | 3.18 |

| Variant | protein stability index |
| --- | --- |
| E11I | 1.9 |
| E11Y | 2.25 |
| E11R | 2.96 |
| E11D | 3.55 |
| E11P | 3.75 |
| E11A | 3.1 |
| E11W | 2.49 |
| E11F | 1.89 |
| E11M | 2.14 |
| E11K | 2.83 |
| E11Q | 3.06 |
| E11S | 3.25 |
| E11T | 2.41 |
| E11L | 1.41 |
| E11C | 2.01 |
| E11N | 3.5 |
| E11G | 4.33 |
| L12A | 3.81 |
| L12F | 2.81 |
| L12V | 4.05 |
| L12T | 4.35 |
| L12N | 3.9 |
| L12Q | 4.51 |
| L12E | 4.08 |
| L12G | 4.09 |

| Variant | protein stability index |
| --- | --- |
| L12D | 4.64 |
| L12S | 4.4 |
| L12K | 4.1 |
| L12P | 4.4 |
| L12R | 3.63 |
| L12H | 4.25 |
| L12W | 3.1 |
| L12M | 3.98 |
| L12Y | 3.56 |
| L12I | 3.65 |
| L12C | 3.97 |
| R8D | 4.71 |
| R8V | 2.99 |
| R8Y | 2.87 |
| R8I | 2.37 |
| R8H | 3.61 |
| R8N | 4.34 |
| R8E | 4.4 |
| R8Q | 4.09 |
| R8S | 3.77 |
| R8A | 3.33 |
| R8T | 3.59 |
| R8K | 3.5 |
| R8F | 2.61 |
| R8W | 2.7 |

| Variant | protein stability index |
| --- | --- |
| R8M | 3.43 |
| R8L | 2.49 |
| R8P | 4.18 |
| R8C | 2.09 |
| V6M | 2.31 |
| V6G | 3.96 |
| V6D | 4.09 |
| V6K | 2.63 |
| V6R | 2.43 |
| V6W | 1.79 |
| V6P | 4.22 |
| V6H | 3.79 |
| V6Y | 1.96 |
| V6F | 2.28 |
| V6E | 3.37 |
| V6S | 3.48 |
| V6C | 2.72 |
| V6T | 2.98 |
| V6I | 1.95 |
| V6A | 2.86 |
| V6L | 1.91 |
| V6Q | 2.82 |
| V6N | 3.77 |
